From patent publication US20230406885A1, “CYCLIC PEPTIDES FOR TRAPPING INTERLEUKIN-1 BETA” (MERCK SHARP & DOHME LLC, priority 2022, published 2023)
*1 amine or outer side, *2 acyl side, *3 side chain or, on linkers, in order; H or OH if unused. Primed or numbered codes have the meaning given here. [ ]: non-standard residue; d: D form. TyrEtNAc = L-tyrosine O-ethyl acetamide, (S)-3-(4-(2-acetamidoethoxy)phenyl)-2-aminopropanoic acid, CC(=O)NCCOc1ccc(C[C@H](N[*:1])C(=O)[*:2])cc1; 3AzaPhe4AcPip = (S)-3-(6-(4-acetylpiperazin-1-yl)pyridin-3-yl)-2-aminopropanoic acid, CC(=O)N1CCN(c2ccc(C[C@H](N[*:1])C(=O)[*:2])cn2)CC1; AEF′ = (S)-2-amino-3-(6-(2-aminoethoxy)pyridin-3-yl)propanoic acid, O=C([C@H](Cc1ccc(OCCN[*:3])nc1)N[*:1])[*:2]; Ala(piperidin-4-yl) = O=C([C@H](CC1CCN([*:3])CC1)N[*:1])[*:2]; Pro(trans-4-NH2) = O=C([C@@H]1C[C@@H](N[*:3])CN1[*:1])[*:2]; Trp(βS-Me,4-F) = C[C@@H](c1c[nH]c2cccc(F)c12)[C@H](N)C(=O)O; Bip(4'-COOH) = N[C@@H](Cc1ccc(-c2ccc(C(=O)O)cc2)cc1)C(=O)O; hQ = L-homoglutamine, NC(=O)CCC[C@H](N[*:1])C(=O)[*:2]; 1Nal(3S-Me) = C[C@@H](c1cccc2ccccc12)[C@H](N)C(=O)O; Phe(4-COOH) = N[C@@H](Cc1ccc(C(=O)O)cc1)C(=O)O; h3Pal(5-CN) = N#Cc1cncc(CC[C@H](N)C(=O)O)c1; hTyr = N[C@@H](CCc1ccc(O)cc1)C(=O)O; hCha = N[C@@H](CCC1CCCCC1)C(=O)O; hPhe = N[C@@H](CCc1ccccc1)C(=O)O; dOrn = NCCC[C@@H](N)C(=O)O; dDab = NCC[C@@H](N)C(=O)O; dNMeA = CN[C@H](C)C(=O)O; Dab = NCC[C@H](N)C(=O)O; Dap = NC[C@H](N)C(=O)O

B1: SEQ ID NO: 165 (Example No. 165) (peptide)
peptide: cyclo([TyrEtNAc]W[Phe(4-COOH)]G[Pro(trans-4-NH2)][Trp(βS-Me,4-F)]D[dNMeA]G[Bip(4'-COOH)]WL[dA][Ala(piperidin-4-yl)])
SMILES: CC(=O)NCCOc1ccc(C[C@@H]2NC(=O)[C@H](CC3CCNCC3)NC(=O)[C@@H](C)NC(=O)[C@H](CC(C)C)NC(=O)[C@H](Cc3c[nH]c4ccccc34)NC(=O)[C@H](Cc3ccc(-c4ccc(C(=O)O)cc4)cc3)NC(=O)CNC(=O)[C@@H](C)N(C)C(=O)[C@H](CC(=O)O)NC(=O)[C@H]([C@@H](C)c3c[nH]c4cccc(F)c34)NC(=O)[C@@H]3C[C@@H](N)CN3C(=O)CNC(=O)[C@H](Cc3ccc(C(=O)O)cc3)NC(=O)[C@H](Cc3c[nH]c4ccccc34)NC2=O)cc1
B2: SEQ ID NO: 171 (Example No. 171) (peptide)
peptide: cyclo([TyrEtNAc]W[Phe(4-COOH)]G[Pro(trans-4-NH2)][Trp(βS-Me,4-F)]D[dNMeA]G[Bip(4'-COOH)]WL[dS][hTyr])
SMILES: CC(=O)NCCOc1ccc(C[C@@H]2NC(=O)[C@H](CCc3ccc(O)cc3)NC(=O)[C@@H](CO)NC(=O)[C@H](CC(C)C)NC(=O)[C@H](Cc3c[nH]c4ccccc34)NC(=O)[C@H](Cc3ccc(-c4ccc(C(=O)O)cc4)cc3)NC(=O)CNC(=O)[C@@H](C)N(C)C(=O)[C@H](CC(=O)O)NC(=O)[C@H]([C@@H](C)c3c[nH]c4cccc(F)c34)NC(=O)[C@@H]3C[C@@H](N)CN3C(=O)CNC(=O)[C@H](Cc3ccc(C(=O)O)cc3)NC(=O)[C@H](Cc3c[nH]c4ccccc34)NC2=O)cc1
B3: SEQ ID NO: 170 (Example No. 170) (peptide)
peptide: cyclo([TyrEtNAc]W[Phe(4-COOH)]G[Pro(trans-4-NH2)][Trp(βS-Me,4-F)]D[dNMeA]G[Bip(4'-COOH)]WL[dOrn][hTyr])
SMILES: CC(=O)NCCOc1ccc(C[C@@H]2NC(=O)[C@H](CCc3ccc(O)cc3)NC(=O)[C@@H](CCCN)NC(=O)[C@H](CC(C)C)NC(=O)[C@H](Cc3c[nH]c4ccccc34)NC(=O)[C@H](Cc3ccc(-c4ccc(C(=O)O)cc4)cc3)NC(=O)CNC(=O)[C@@H](C)N(C)C(=O)[C@H](CC(=O)O)NC(=O)[C@H]([C@@H](C)c3c[nH]c4cccc(F)c34)NC(=O)[C@@H]3C[C@@H](N)CN3C(=O)CNC(=O)[C@H](Cc3ccc(C(=O)O)cc3)NC(=O)[C@H](Cc3c[nH]c4ccccc34)NC2=O)cc1
B4: SEQ ID NO: 167 (Example No. 167) (peptide)
peptide: cyclo([TyrEtNAc]W[Phe(4-COOH)]G[Pro(trans-4-NH2)][Trp(βS-Me,4-F)]D[dNMeA]G[Bip(4'-COOH)]WL[dA][hTyr])
SMILES: CC(=O)NCCOc1ccc(C[C@@H]2NC(=O)[C@H](CCc3ccc(O)cc3)NC(=O)[C@@H](C)NC(=O)[C@H](CC(C)C)NC(=O)[C@H](Cc3c[nH]c4ccccc34)NC(=O)[C@H](Cc3ccc(-c4ccc(C(=O)O)cc4)cc3)NC(=O)CNC(=O)[C@@H](C)N(C)C(=O)[C@H](CC(=O)O)NC(=O)[C@H]([C@@H](C)c3c[nH]c4cccc(F)c34)NC(=O)[C@@H]3C[C@@H](N)CN3C(=O)CNC(=O)[C@H](Cc3ccc(C(=O)O)cc3)NC(=O)[C@H](Cc3c[nH]c4ccccc34)NC2=O)cc1
B5: SEQ ID NO: 168 (Example No. 168) (peptide)
peptide: cyclo([TyrEtNAc]W[Phe(4-COOH)]G[Pro(trans-4-NH2)][Trp(βS-Me,4-F)]D[dNMeA]G[Bip(4'-COOH)]WL[dDab][hTyr])
SMILES: CC(=O)NCCOc1ccc(C[C@@H]2NC(=O)[C@H](CCc3ccc(O)cc3)NC(=O)[C@@H](CCN)NC(=O)[C@H](CC(C)C)NC(=O)[C@H](Cc3c[nH]c4ccccc34)NC(=O)[C@H](Cc3ccc(-c4ccc(C(=O)O)cc4)cc3)NC(=O)CNC(=O)[C@@H](C)N(C)C(=O)[C@H](CC(=O)O)NC(=O)[C@H]([C@@H](C)c3c[nH]c4cccc(F)c34)NC(=O)[C@@H]3C[C@@H](N)CN3C(=O)CNC(=O)[C@H](Cc3ccc(C(=O)O)cc3)NC(=O)[C@H](Cc3c[nH]c4ccccc34)NC2=O)cc1
B6: SEQ ID NO: 172 (Example No. 172) (peptide)
peptide: cyclo([TyrEtNAc]W[Phe(4-COOH)]G[Pro(trans-4-NH2)][Trp(βS-Me,4-F)]D[dNMeA]G[Bip(4'-COOH)]WS[dA][hTyr])
SMILES: CC(=O)NCCOc1ccc(C[C@@H]2NC(=O)[C@H](CCc3ccc(O)cc3)NC(=O)[C@@H](C)NC(=O)[C@H](CO)NC(=O)[C@H](Cc3c[nH]c4ccccc34)NC(=O)[C@H](Cc3ccc(-c4ccc(C(=O)O)cc4)cc3)NC(=O)CNC(=O)[C@@H](C)N(C)C(=O)[C@H](CC(=O)O)NC(=O)[C@H]([C@@H](C)c3c[nH]c4cccc(F)c34)NC(=O)[C@@H]3C[C@@H](N)CN3C(=O)CNC(=O)[C@H](Cc3ccc(C(=O)O)cc3)NC(=O)[C@H](Cc3c[nH]c4ccccc34)NC2=O)cc1
B7: SEQ ID NO: 166 (Example No. 166) (peptide)
peptide: cyclo([TyrEtNAc]W[Phe(4-COOH)]G[Pro(trans-4-NH2)][Trp(βS-Me,4-F)]D[dNMeA]G[Bip(4'-COOH)]WL[dA][hPhe])
SMILES: CC(=O)NCCOc1ccc(C[C@@H]2NC(=O)[C@H](CCc3ccccc3)NC(=O)[C@@H](C)NC(=O)[C@H](CC(C)C)NC(=O)[C@H](Cc3c[nH]c4ccccc34)NC(=O)[C@H](Cc3ccc(-c4ccc(C(=O)O)cc4)cc3)NC(=O)CNC(=O)[C@@H](C)N(C)C(=O)[C@H](CC(=O)O)NC(=O)[C@H]([C@@H](C)c3c[nH]c4cccc(F)c34)NC(=O)[C@@H]3C[C@@H](N)CN3C(=O)CNC(=O)[C@H](Cc3ccc(C(=O)O)cc3)NC(=O)[C@H](Cc3c[nH]c4ccccc34)NC2=O)cc1
B8: SEQ ID NO: 173 (Example No. 173) (peptide)
peptide: cyclo([TyrEtNAc]W[Phe(4-COOH)]G[Pro(trans-4-NH2)][Trp(βS-Me,4-F)]D[dNMeA]G[Bip(4'-COOH)]WS[dA][TyrEtNAc])
SMILES: CC(=O)NCCOc1ccc(C[C@@H]2NC(=O)[C@H](Cc3ccc(OCCNC(C)=O)cc3)NC(=O)[C@@H](C)NC(=O)[C@H](CO)NC(=O)[C@H](Cc3c[nH]c4ccccc34)NC(=O)[C@H](Cc3ccc(-c4ccc(C(=O)O)cc4)cc3)NC(=O)CNC(=O)[C@@H](C)N(C)C(=O)[C@H](CC(=O)O)NC(=O)[C@H]([C@@H](C)c3c[nH]c4cccc(F)c34)NC(=O)[C@@H]3C[C@@H](N)CN3C(=O)CNC(=O)[C@H](Cc3ccc(C(=O)O)cc3)NC(=O)[C@H](Cc3c[nH]c4ccccc34)NC2=O)cc1
B9: SEQ ID NO: 175 (Example No. 175) (peptide)
peptide: cyclo([3AzaPhe4AcPip]W[Phe(4-COOH)]G[Pro(trans-4-NH2)][1Nal(3S-Me)]D[dNMeA]G[Bip(4'-COOH)][Dap]L[dA][hCha])
SMILES: CC(=O)N1CCN(c2ccc(C[C@@H]3NC(=O)[C@H](CCC4CCCCC4)NC(=O)[C@@H](C)NC(=O)[C@H](CC(C)C)NC(=O)[C@H](CN)NC(=O)[C@H](Cc4ccc(-c5ccc(C(=O)O)cc5)cc4)NC(=O)CNC(=O)[C@@H](C)N(C)C(=O)[C@H](CC(=O)O)NC(=O)[C@H]([C@@H](C)c4cccc5ccccc45)NC(=O)[C@@H]4C[C@@H](N)CN4C(=O)CNC(=O)[C@H](Cc4ccc(C(=O)O)cc4)NC(=O)[C@H](Cc4c[nH]c5ccccc45)NC3=O)cn2)CC1
B10: SEQ ID NO: 169 (Example No. 169) (peptide)
peptide: cyclo([TyrEtNAc]W[Phe(4-COOH)]G[Pro(trans-4-NH2)][Trp(βS-Me,4-F)]D[dNMeA]G[Bip(4'-COOH)]WL[dK][hTyr])
SMILES: CC(=O)NCCOc1ccc(C[C@@H]2NC(=O)[C@H](CCc3ccc(O)cc3)NC(=O)[C@@H](CCCCN)NC(=O)[C@H](CC(C)C)NC(=O)[C@H](Cc3c[nH]c4ccccc34)NC(=O)[C@H](Cc3ccc(-c4ccc(C(=O)O)cc4)cc3)NC(=O)CNC(=O)[C@@H](C)N(C)C(=O)[C@H](CC(=O)O)NC(=O)[C@H]([C@@H](C)c3c[nH]c4cccc(F)c34)NC(=O)[C@@H]3C[C@@H](N)CN3C(=O)CNC(=O)[C@H](Cc3ccc(C(=O)O)cc3)NC(=O)[C@H](Cc3c[nH]c4ccccc34)NC2=O)cc1
B11: SEQ ID NO: 176 (Example No. 176) (peptide)
peptide: cyclo([3AzaPhe4AcPip]W[Phe(4-COOH)]G[Pro(trans-4-NH2)][1Nal(3S-Me)]D[dNMeA]G[Bip(4'-COOH)][hQ]L[dA][h3Pal(5-CN)])
SMILES: CC(=O)N1CCN(c2ccc(C[C@@H]3NC(=O)[C@H](CCc4cncc(C#N)c4)NC(=O)[C@@H](C)NC(=O)[C@H](CC(C)C)NC(=O)[C@H](CCCC(N)=O)NC(=O)[C@H](Cc4ccc(-c5ccc(C(=O)O)cc5)cc4)NC(=O)CNC(=O)[C@@H](C)N(C)C(=O)[C@H](CC(=O)O)NC(=O)[C@H]([C@@H](C)c4cccc5ccccc45)NC(=O)[C@@H]4C[C@@H](N)CN4C(=O)CNC(=O)[C@H](Cc4ccc(C(=O)O)cc4)NC(=O)[C@H](Cc4c[nH]c5ccccc45)NC3=O)cn2)CC1
B12: SEQ ID NO: 174 (Example No. 174) (peptide)
peptide: cyclo([3AzaPhe4AcPip]W[Phe(4-COOH)]G[Pro(trans-4-NH2)][1Nal(3S-Me)]D[dNMeA]G[Bip(4'-COOH)][Dab]L[dA][hCha])
SMILES: CC(=O)N1CCN(c2ccc(C[C@@H]3NC(=O)[C@H](CCC4CCCCC4)NC(=O)[C@@H](C)NC(=O)[C@H](CC(C)C)NC(=O)[C@H](CCN)NC(=O)[C@H](Cc4ccc(-c5ccc(C(=O)O)cc5)cc4)NC(=O)CNC(=O)[C@@H](C)N(C)C(=O)[C@H](CC(=O)O)NC(=O)[C@H]([C@@H](C)c4cccc5ccccc45)NC(=O)[C@@H]4C[C@@H](N)CN4C(=O)CNC(=O)[C@H](Cc4ccc(C(=O)O)cc4)NC(=O)[C@H](Cc4c[nH]c5ccccc45)NC3=O)cn2)CC1

Each binder was assayed against Recombinant human IL-1β (BioLegend 579404) (human, UniProt P01584 117-269) (assay: cell-based or functional assay).

Row | MRC5 IC50 [nM] | Binder
1 | 0.781 | B1
2 | 0.145 | B2
3 | 0.0966 | B3
4 | 0.136 | B4
5 | 0.459 | cyclo([TyrEtNAc]W[Phe(4-COOH)]G[Pro(trans-4-NH2)][Trp(βS-Me,4-F)]D[dNMeA]G[Bip(4'-COOH)]WL[dA][AEF′]) [SEQ ID NO: 164 (Example No. 164)]
6 | 0.0847 | B5
7 | 0.246 | B6
8 | 0.149 | B7
9 | 0.959 | B8
10 | 0.016 | B9
11 | 0.112 | B10
12 | 0.017 | B11
13 | 0.015 | B12
